In patent US20050106160A1:
“And” between values parts separate entries of the source, which are not always exact repeats. Identical values can stand only once. Like-named read-outs stand apart in the source and are kept apart here.

How the values were obtained:
[1] = molecular target: cell surface associated CCR5 (CF2Th-CCR5 cells) (UniProt P51681)
[2] = molecular target: cell surface associated CCR5 (CF2Th-CCR5 cells) (UniProt P51681); experiment: flow cytometry on CF2Th-CCR5 cells, anti-CCR5 mAb 5C7, no ligand, background subtracted
[3] = molecular target: cell surface associated CCR5 (CF2Th-CCR5 cells) (UniProt P51681); experiment: flow cytometry on CF2Th-CCR5 cells, anti-CCR5 mAb 5C7, cells preincubated with gp140 + sCD4
[4] = molecular target: cell surface associated CCR5 (CF2Th-CCR5 cells) (UniProt P51681); experiment: flow cytometry on CF2Th-CCR5 cells, anti-CCR5 mAb 5C7, cells preincubated with sCD4 (1 µg/ml)

Sequence of UniProt P51681 (P51681 whole entry): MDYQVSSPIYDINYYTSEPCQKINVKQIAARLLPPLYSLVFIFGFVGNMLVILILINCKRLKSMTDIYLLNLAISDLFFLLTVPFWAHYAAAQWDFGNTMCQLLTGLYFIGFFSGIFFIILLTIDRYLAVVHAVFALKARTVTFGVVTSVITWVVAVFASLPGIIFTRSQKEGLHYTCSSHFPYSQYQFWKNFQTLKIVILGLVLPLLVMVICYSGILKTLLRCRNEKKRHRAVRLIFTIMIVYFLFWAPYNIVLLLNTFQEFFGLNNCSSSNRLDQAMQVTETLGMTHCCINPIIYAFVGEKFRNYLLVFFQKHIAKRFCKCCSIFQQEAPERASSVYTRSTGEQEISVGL

Substance	geometric mean of fluorescence intensity (arbitrary units) [1]	geometric mean of fluorescence intensity (arbitrary units) [2]	geometric mean of fluorescence intensity (arbitrary units) [3]	geometric mean of fluorescence intensity (arbitrary units) [4]
anti-CCR5 mAb 5C7 (antibody)	1200 and 1100	1100	370	1300
two-domain soluble CD4 (sCD4) (from UniProt P01730 26-208) (receptor)	20			
